Target: UCM12
Sequence (chain, as listed by the source, chain 1 of 3, other chains not shown): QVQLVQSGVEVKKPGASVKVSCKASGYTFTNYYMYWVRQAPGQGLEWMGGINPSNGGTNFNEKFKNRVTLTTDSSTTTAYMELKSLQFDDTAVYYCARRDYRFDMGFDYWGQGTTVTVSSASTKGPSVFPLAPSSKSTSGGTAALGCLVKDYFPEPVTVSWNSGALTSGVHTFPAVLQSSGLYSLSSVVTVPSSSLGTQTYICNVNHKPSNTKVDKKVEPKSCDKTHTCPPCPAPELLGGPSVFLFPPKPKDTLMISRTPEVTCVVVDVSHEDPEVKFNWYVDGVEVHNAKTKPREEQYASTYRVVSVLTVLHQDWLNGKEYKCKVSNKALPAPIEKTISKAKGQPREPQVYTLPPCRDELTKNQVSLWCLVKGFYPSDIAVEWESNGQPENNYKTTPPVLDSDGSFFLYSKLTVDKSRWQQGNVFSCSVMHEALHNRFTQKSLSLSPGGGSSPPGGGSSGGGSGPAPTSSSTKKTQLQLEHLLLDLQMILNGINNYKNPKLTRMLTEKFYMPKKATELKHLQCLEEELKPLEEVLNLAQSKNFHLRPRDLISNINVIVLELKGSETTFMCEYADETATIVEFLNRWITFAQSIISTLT
Sequence (chain, as listed by the source, chain 2 of 3, other chains not shown): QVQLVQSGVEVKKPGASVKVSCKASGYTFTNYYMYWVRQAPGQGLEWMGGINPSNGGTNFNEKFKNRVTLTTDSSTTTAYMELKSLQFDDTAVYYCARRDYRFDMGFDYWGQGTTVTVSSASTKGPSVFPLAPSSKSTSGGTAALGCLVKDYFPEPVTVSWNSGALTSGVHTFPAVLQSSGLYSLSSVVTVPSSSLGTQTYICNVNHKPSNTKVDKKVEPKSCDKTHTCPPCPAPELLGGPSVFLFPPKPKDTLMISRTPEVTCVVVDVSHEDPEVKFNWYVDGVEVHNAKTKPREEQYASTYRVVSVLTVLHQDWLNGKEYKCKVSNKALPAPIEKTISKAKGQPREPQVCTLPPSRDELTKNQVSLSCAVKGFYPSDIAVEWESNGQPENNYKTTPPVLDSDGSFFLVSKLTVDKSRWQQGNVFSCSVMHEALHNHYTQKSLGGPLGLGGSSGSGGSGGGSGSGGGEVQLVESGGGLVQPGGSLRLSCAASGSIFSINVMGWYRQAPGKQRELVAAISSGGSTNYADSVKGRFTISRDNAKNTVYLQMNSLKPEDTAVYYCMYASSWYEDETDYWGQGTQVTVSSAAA

Row | Protein | kcat/Km
1 | Matrix Metalloproteinase 1 (protein) FVLTEGNPRWEQTHLTYRIENYTPDLPRADVDHAIEKAFQLWSNVTPLTFTKVSEGQADIMISFVRGDHRDNSPFDGPGGNLAHAFQPGPGIGGDAHFDEDERWTNNFREYNLHRVAAHELGHSLGLSHSTDIGALMYPSYTFSGDVQLAQDDIDGIQAIYGRSQNPVQPIGPQTPKACDSKLTFDAITTIRGEVMFFKDRFYMRTNPFYPEVELNFISVFWPQLPNGLEAAYEFADRDEVRFFKGNKYWAVQGQNVLHGYPKDIYSSFGFPRTVKHIDAALSEENTGKTYFFVANKYWRYDEYKRSMDPGYPKMIAHDFPGIGHKVDAVFMKDGFFYFFHGTRQYKFDPKTKRILTLQKANSWFNCRKN | 230 M⁻¹ s⁻¹
2 | MMP2 (protein) YNFFPRKPKWDKNQITYRIIGYTPDLDPETVDDAFARAFQVWSDVTPLRFSRIHDGEADIMINFGRWEHGDGYPFDGKDGLLAHAFAPGTGVGGDSHFDDDELWTLGEGQVVRVKYGNADGEYCKFPFLFNGKEYNSCTDTGRSDGFLWCSTTYNFEKDGKYGFCPHEALFTMGGNAEGQPCKFPFRFQGTSYDSCTTEGRTDGYRWCGTTEDYDRDKKYGFCPETAMSTVGGNSEGAPCVFPFTFLGNKYESCTSAGRSDGKMWCATTANYDDDRKWGFCPDQGYSLFLVAAHEFGHAMGLEHSQDPGALMAPIYTYTKNFRLSQDDIKGIQELYGASPDIDLGTGPTPTLGPVTPEICKQDIVFDGIAQIRGEIFFFKDRFIWRTVTPRDKPMGPLLVATFWPELPEKIDAVYEAPQEEKAVFFAGNEYWIYSASTLERGYPKPLTSLGLPPDVQRVDAAFNWSKNKKTYIFAGDKFWRYNEVKKKMDPGFPKLIADAWNAIPDNLDAVVDLQGGGHSYFFKGAYYLKLENQSLKSVKFGSIKSDWLGC | 1900 M⁻¹ s⁻¹

Source: patent US20250250314
